Substrate in this data set: O=[N+]([O-])c1ccc(O[C@@H]2OC[C@@H](O[C@@H]3OC[C@@H](O)[C@H](O)[C@H]3O)[C@H](O)[C@H]2O)cc1
In words: Eadie-Hofstee plot of hydrolysis. Format: biochemical, Halalkalibacterium halodurans. The note with it: pH and temperature of kinetic assay not stated (activity assay: glycine-NaOH pH 9.0, 70 °C). From the text:
Eadie-Hofstee plot of hydrolysis on S7-xyl (Xyn10A in Table 1)

Setting [1] is: mutant 254RL1, text b16 says Km slightly increased by 10%, table shows a decrease.

B1: S7-xyl (Xyn10A in Table 1) (Halalkalibacterium halodurans C-125) (protein)
chain: AQGGPPKSGVFGENEKRNDQPFAWQVASLSERYQEQFDIGAAVEPYQLEGRQAQILKHHYNSLVAENAMKPESLQPREGEWNWEGADKIVEFARKHNMELRFHTLVWHSQVPEWFFIDEDGNRMVDETDPDKREANKQLLLERMENHIKTVVERYKDDVTSWDVVNEVIDDGGGLRESEWYQITGTDYIKVAFETARKYGGEEAKLYINDYNTEVPSKRDDLYNLVKDLLEQGVPIDGVGHQSHIQIGWPSIEDTRASFEKFTSLGLDNQVTELDMSLYGWPPTGAYTSYDDIPAELLQAQADRYDQLFELYEELAADISSVTFWGIADNHTWLDGRAREYNNGVGIDAPFVFDHNYRVKPAYWRIID
notes: N-terminal His-tag, pET-28a, E. coli Rosetta (DE3), codon-optimized synthetic gene; GH10
Take B1: under “listed as labelled Xyn10A”, the Michaelis-Menten constant (Km) is on record as 4.42 ± 0.12 mM, the kcat amounted to 4.57 ± 0.31 s⁻¹ and the catalytic efficiency (kcat/Km) is 1030 M⁻¹ s⁻¹.

B2: S7-xyl (Xyn10A in Table 1) (Halalkalibacterium halodurans C-125; Q274S/V243N/W277R) (protein)
chain: AQGGPPKSGVFGENEKRNDQPFAWQVASLSERYQEQFDIGAAVEPYQLEGRQAQILKHHYNSLVAENAMKPESLQPREGEWNWEGADKIVEFARKHNMELRFHTLVWHSQVPEWFFIDEDGNRMVDETDPDKREANKQLLLERMENHIKTVVERYKDDVTSWDVVNEVIDDGGGLRESEWYQITGTDYIKVAFETARKYGGEEAKLYINDYNTENPSKRDDLYNLVKDLLEQGVPIDGVGHQSHISIGRPSIEDTRASFEKFTSLGLDNQVTELDMSLYGWPPTGAYTSYDDIPAELLQAQADRYDQLFELYEELAADISSVTFWGIADNHTWLDGRAREYNNGVGIDAPFVFDHNYRVKPAYWRIID
notes: as for B1
With B2, under setting [1], the Michaelis constant (Km) was 4.04 ± 0.27 mM, the kcat worked out at 14.4 ± 0.21 s⁻¹ and the kcat/Km was 3540 M⁻¹ s⁻¹.
